Experiments:
[1] = target: recombinant HA-tagged Vimentin (Vimentin-HA) (human) (UniProt P08670); experiment: ELISA; Vimentin-HA coated as ligand at 10 ug/ml in PBS on polystyrene wells; AP-MS candidate as analyte, 1 h at RT in PBS, 0.1 % BSA, 0.02 % Tween-20; detected by anti-SpyTag antibody; approximate Kd by one-site total saturation binding fit
[2] = target: EPHB2, recombinant ectodomain (human) (UniProt P29323); experiment: ELISA; AP-MS candidate coated as ligand at 10 ug/ml in PBS on polystyrene wells; Vimentin-HA as analyte, 30 min at RT in PBS, 0.1 % BSA, 0.02 % Tween-20; detected by anti-HA-tag antibody; approximate Kd by one-site total saturation binding fit
[3] = target: LRRC15, recombinant ectodomain (human) (UniProt Q8TF66); experiment: as above
[4] = target: EPHA2, recombinant ectodomain (human) (UniProt P29317); experiment: as above

Substance	Kd [1]	Kd [2]	Kd [3]	Kd [4]
TFRC, recombinant ectodomain (from UniProt P02786 89-760) (receptor)	119 nM			
recombinant HA-tagged Vimentin (Vimentin-HA) (from UniProt P08670 1-466) (natural protein)		65.3 nM	53.6 nM	20.7 nM
DKK1, recombinant (from UniProt O94907 32-266) (ligand)	232 nM			
